From PMC10727010 (Structure (London, England : 1993), 2023)
Values belong to the molecule of their own block, whether it stands above or below them.

Legend:
[1] = biological target: uniformly 2H,13C,15N-labelled proliferating cell nuclear antigen (PCNA), used in NMR (human, UniProt P12004 1-259, uniformly 2H,13C,15N enriched); assay: NMR titration
[2] = system: PCNA; settings: PIP or APIM mutated; local ultraviolet irradiation; ref [5]; cited from earlier work

Chain of uniformly 2H,13C,15N-labelled proliferating cell nuclear antigen (PCNA), used in NMR (P12004 1-259): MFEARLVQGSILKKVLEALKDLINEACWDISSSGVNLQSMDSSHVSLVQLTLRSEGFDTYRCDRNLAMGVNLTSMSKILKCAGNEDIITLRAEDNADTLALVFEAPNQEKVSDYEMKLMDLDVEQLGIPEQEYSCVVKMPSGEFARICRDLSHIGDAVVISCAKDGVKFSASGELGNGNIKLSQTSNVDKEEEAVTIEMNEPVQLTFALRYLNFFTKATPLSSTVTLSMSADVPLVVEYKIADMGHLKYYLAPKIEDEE

- Kd [1]: 7.8 µM
Molecule: GSQRCIPEFFLAGK [FBH1PIP peptide (residues 55-68 of F-box DNA helicase 1)]

B1: F-box DNA helicase 1 (protein, UniProt Q8NFZ0 1-1043, looked up)
F-box DNA helicase 1: MRRFKRKHLTAIDCQHLARSHLAVTQPFGQRWTNRDPNHGLYPKPRTKRGSRGQGSQRCIPEFFLAGKQPCTNDMAKSNSVGQDSCQDSEGDMIFPAESSCALPQEGSAGPGSPGSAPPSRKRSWSSEEESNQATGTSRWDGVSKKAPRHHLSVPCTRPREARQEAEDSTSRLSAESGETDQDAGDVGPDPIPDSYYGLLGTLPCQEALSHICSLPSEVLRHVFAFLPVEDLYWNLSLVCHLWREIISDPLFIPWKKLYHRYLMNEEQAVSKVDGILSNCGIEKESDLCVLNLIRYTATTKCSPSVDPERVLWSLRDHPLLPEAEACVRQHLPDLYAAAGGVNIWALVAAVVLLSSSVNDIQRLLFCLRRPSSTVTMPDVTETLYCIAVLLYAMREKGINISNRIHYNIFYCLYLQENSCTQATKVKEEPSVWPGKKTIQLTHEQQLILNHKMEPLQVVKIMAFAGTGKTSTLVKYAEKWSQSRFLYVTFNKSIAKQAERVFPSNVICKTFHSMAYGHIGRKYQSKKKLNLFKLTPFMVNSVLAEGKGGFIRAKLVCKTLENFFASADEELTIDHVPIWCKNSQGQRVMVEQSEKLNGVLEASRLWDNMRKLGECTEEAHQMTHDGYLKLWQLSKPSLASFDAIFVDEAQDCTPAIMNIVLSQPCGKIFVGDPHQQIYTFRGAVNALFTVPHTHVFYLTQSFRFGVEIAYVGATILDVCKRVRKKTLVGGNHQSGIRGDAKGQVALLSRTNANVFDEAVRVTEGEFPSRIHLIGGIKSFGLDRIIDIWILLQPEEERRKQNLVIKDKFIRRWVHKEGFSGFKRYVTAAEDKELEAKIAVVEKYNIRIPELVQRIEKCHIEDLDFAEYILGTVHKAKGLEFDTVHVLDDFVKVPCARHNLPQLPHFRVESFSEDEWNLLYVAVTRAKKRLIMTKSLENILTLAGEYFLQAELTSNVLKTGVVRCCVGQCNNAIPVDTVLTMKKLPITYSNRKENKGGYLCHSCAEQRIGPLAFLTASPEQVRAMERTVENIVLPRHEALLFLVF
- co-localization of PCNA and FBH1 on motif mutation [2]: reduced co-localization of PCNA and FBH1 when either PIP or APIM is mutated

- Kd [1]: 276 µM
Molecule: KDKFIRRWVHK [FBH1APIM peptide (residues 805-815 of F-box DNA helicase 1)]
